Results as given in publication PMC4470041.

Biological target: CCR5 expressed in HEK 293T cells (HEK-CCR5 cells) (UniProt P51681)
Assay: radioligand binding

Chain of UniProt P51681 (P51681 whole entry): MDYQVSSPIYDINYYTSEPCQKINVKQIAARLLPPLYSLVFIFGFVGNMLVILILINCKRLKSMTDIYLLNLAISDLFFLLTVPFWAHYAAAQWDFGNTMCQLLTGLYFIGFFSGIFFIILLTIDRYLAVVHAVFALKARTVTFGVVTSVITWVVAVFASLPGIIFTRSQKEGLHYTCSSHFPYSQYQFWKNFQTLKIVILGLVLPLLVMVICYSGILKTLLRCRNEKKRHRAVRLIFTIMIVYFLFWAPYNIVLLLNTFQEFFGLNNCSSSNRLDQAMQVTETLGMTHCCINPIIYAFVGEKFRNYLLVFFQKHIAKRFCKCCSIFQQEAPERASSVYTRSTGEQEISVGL

## gp120 from the R5 HIV-1 primary strain Bx08 (natural protein)
  Ki: 6.3 nM
